Reference: article doi:10.1101/2025.07.07.663466

Biological target: T1, recombinant M. tuberculosis GroEL1 (M. tuberculosis), P9WPE9
T1 chain: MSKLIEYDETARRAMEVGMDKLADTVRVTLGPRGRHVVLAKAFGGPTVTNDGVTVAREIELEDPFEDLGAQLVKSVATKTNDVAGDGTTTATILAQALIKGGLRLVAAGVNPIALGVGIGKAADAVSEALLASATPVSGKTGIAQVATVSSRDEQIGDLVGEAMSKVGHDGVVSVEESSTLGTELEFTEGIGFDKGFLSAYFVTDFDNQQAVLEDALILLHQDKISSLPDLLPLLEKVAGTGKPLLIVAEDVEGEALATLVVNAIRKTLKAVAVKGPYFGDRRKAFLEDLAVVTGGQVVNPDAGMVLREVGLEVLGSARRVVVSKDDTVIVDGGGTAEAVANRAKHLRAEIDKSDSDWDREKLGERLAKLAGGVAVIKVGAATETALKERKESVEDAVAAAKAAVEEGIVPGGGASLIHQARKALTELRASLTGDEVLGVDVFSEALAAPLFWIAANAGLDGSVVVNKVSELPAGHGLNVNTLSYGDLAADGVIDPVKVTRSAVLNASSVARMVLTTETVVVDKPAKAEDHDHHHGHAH
Assay: native gel or EMSA
Details: remark: other sources report otherwise

B1: recombinant M. tuberculosis GroEL1, P9WPE9 1-539 (natural protein)
chain: T1 chain
  stoichiometry N: 2
